Starred links: 1 amine or outer side, 2 acyl side, 3 side chain; linkers in the order of their positions; H or OH if unused. Non-standard residues stand in square brackets, D forms with d. Groups on a side chain read outwards from the residue. No end group written: not given here. *: point of attachment. C20 diacid = O=C(O)CCCCCCCCCCCCCCCCCCC(=O)*; γGlu = O=C(O)[C@H](CCC(=O)[*:2])N[*:1]; αMeF = C[C@](N)(Cc1ccccc1)C(=O)O; 4Pal = N[C@@H](Cc1ccncc1)C(=O)O; αMeL = CC(C)C[C@](C)(N)C(=O)O; AEEA = NCCOCCOCC(=O)O; Aib = CC(C)(N)C(=O)O
T1: human glucose-dependent insulinotropic polypeptide (GIP) receptor (human, UniProt P48546 22-466)
T1 construct: whole, on cells; Assayed as crude membranes of stably transfected CHO cells; also called hGIPR; human GIP receptor
T1 sequence (looked up): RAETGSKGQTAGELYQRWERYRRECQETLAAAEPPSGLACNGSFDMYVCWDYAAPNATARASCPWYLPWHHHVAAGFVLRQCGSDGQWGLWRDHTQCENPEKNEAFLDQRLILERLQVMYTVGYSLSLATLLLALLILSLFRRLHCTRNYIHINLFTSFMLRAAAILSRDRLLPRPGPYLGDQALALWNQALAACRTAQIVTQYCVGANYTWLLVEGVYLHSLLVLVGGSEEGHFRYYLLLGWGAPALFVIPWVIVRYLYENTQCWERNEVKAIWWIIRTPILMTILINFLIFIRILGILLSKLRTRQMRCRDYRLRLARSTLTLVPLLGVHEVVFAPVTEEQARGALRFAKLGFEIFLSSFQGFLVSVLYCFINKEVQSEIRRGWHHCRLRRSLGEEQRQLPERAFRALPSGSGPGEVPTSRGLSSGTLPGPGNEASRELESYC


Tests used:
human glucagon receptor = molecular target: T2, human glucagon receptor (human, UniProt P47871 26-477); test: SPA, displacement of [125I]-Gcg from hGcgR membranes, 0.1% bacitracin
T2 construct: whole, on cells; Assayed as crude membranes of stably transfected HEK293 cells; also called hGcgR; GcgR
Outline: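 Binding buffer: 25 mM HEPES pH 7.4, 2.5 mM CaCl₂, 1 mM MgCl₂, 0.003% Tween-20, protease inhibitors without EDTA. Counted by scintillation after 12 h incubation/settling at room temperature. Four-parameter nonlinear fit; Kᵢ given as geometric mean ± SEM of independent replicates run on different days.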

human GLP-1 receptor = molecular target: T3, human GLP-1 receptor (human, UniProt P43220 24-463); test: SPA, displacement of [125I]-GLP-1 from hGLP-1R membranes, 0.1% bacitracin
T3 construct: whole, on cells; Assayed as crude membranes of stably transfected HEK293 cells; also called hGLP1R; hGLP-1R
Outline: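 Binding buffer: 25 mM HEPES pH 7.4, 2.5 mM CaCl₂, 1 mM MgCl₂, 0.1% bacitracin, 0.003% Tween-20, protease inhibitors without EDTA. Four-parameter nonlinear regression; Kᵢ given as geometric mean ± SEM, n = independent replicates run on different days.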

[1] = molecular target: T1, human glucose-dependent insulinotropic …; test: SPA, displacement of [125I]-GIP from hGIPR membranes, 0.1% bacitracin

T2 sequence (P47871 26-477): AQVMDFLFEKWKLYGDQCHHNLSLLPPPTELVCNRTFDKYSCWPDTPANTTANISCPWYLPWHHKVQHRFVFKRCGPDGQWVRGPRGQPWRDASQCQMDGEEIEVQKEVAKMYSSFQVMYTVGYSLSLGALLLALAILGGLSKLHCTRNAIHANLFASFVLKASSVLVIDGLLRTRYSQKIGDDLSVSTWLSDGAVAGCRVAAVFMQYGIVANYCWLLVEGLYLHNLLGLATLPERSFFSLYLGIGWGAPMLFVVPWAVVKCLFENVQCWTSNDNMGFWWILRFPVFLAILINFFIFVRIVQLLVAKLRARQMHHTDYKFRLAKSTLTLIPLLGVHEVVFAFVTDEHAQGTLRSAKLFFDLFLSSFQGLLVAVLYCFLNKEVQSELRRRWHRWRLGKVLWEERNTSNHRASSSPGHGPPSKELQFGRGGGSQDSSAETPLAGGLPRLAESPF

Binder	Ki (human glucagon receptor)	Ki (human GLP-1 receptor)	Ki [1]
Y[Aib]EGTFISDYSI[αMeL]LDKK([AEEA-AEEA-γGlu-C20 diacid])HQ[Aib]DFVEYLLEAGPSSGAPPPS-NH2 (N-terminus assumed; SMILES CC[C@H](C)[C@H](NC(=O)[C@H](Cc1ccccc1)NC(=O)[C@@H](NC(=O)CNC(=O)[C@H](CCC(=O)O)NC(=O)C(C)(C)NC(=O)[C@@H](N)Cc1ccc(O)cc1)[C@@H](C)O)C(=O)N[C@@H](CO)C(=O)N[C@@H](CC(=O)O)C(=O)N[C@@H](Cc1ccc(O)cc1)C(=O)N[C@@H](CO)C(=O)N[C@H](C(=O)N[C@@](C)(CC(C)C)C(=O)N[C@@H](CC(C)C)C(=O)N[C@@H](CC(=O)O)C(=O)N[C@@H](CCCCN)C(=O)N[C@@H](CCCCNC(=O)COCCOCCNC(=O)COCCOCCNC(=O)CC[C@H](NC(=O)CCCCCCCCCCCCCCCCCCC(=O)O)C(=O)O)C(=O)N[C@@H](Cc1c[nH]cn1)C(=O)N[C@@H](CCC(N)=O)C(=O)NC(C)(C)C(=O)N[C@@H](CC(=O)O)C(=O)N[C@@H](Cc1ccccc1)C(=O)N[C@H](C(=O)N[C@@H](CCC(=O)O)C(=O)N[C@@H](Cc1ccc(O)cc1)C(=O)N[C@@H](CC(C)C)C(=O)N[C@@H](CC(C)C)C(=O)N[C@@H](CCC(=O)O)C(=O)N[C@@H](C)C(=O)NCC(=O)N1CCC[C@H]1C(=O)N[C@@H](CO)C(=O)N[C@@H](CO)C(=O)NCC(=O)N[C@@H](C)C(=O)N1CCC[C@H]1C(=O)N1CCC[C@H]1C(=O)N1CCC[C@H]1C(=O)N[C@@H](CO)C(N)=O)C(C)C)[C@@H](C)CC) [Example 68]	290 nM	421 nM	0.0948 nM
Y[Aib]EGTLISDYSI[αMeL]LDKK([AEEA-AEEA-γGlu-C20 diacid])HQ[Aib]EFVEYLLEGGPSSGAPPPS-NH2 (N-terminus assumed; SMILES CC[C@H](C)[C@H](NC(=O)[C@H](CC(C)C)NC(=O)[C@@H](NC(=O)CNC(=O)[C@H](CCC(=O)O)NC(=O)C(C)(C)NC(=O)[C@@H](N)Cc1ccc(O)cc1)[C@@H](C)O)C(=O)N[C@@H](CO)C(=O)N[C@@H](CC(=O)O)C(=O)N[C@@H](Cc1ccc(O)cc1)C(=O)N[C@@H](CO)C(=O)N[C@H](C(=O)N[C@@](C)(CC(C)C)C(=O)N[C@@H](CC(C)C)C(=O)N[C@@H](CC(=O)O)C(=O)N[C@@H](CCCCN)C(=O)N[C@@H](CCCCNC(=O)COCCOCCNC(=O)COCCOCCNC(=O)CC[C@H](NC(=O)CCCCCCCCCCCCCCCCCCC(=O)O)C(=O)O)C(=O)N[C@@H](Cc1c[nH]cn1)C(=O)N[C@@H](CCC(N)=O)C(=O)NC(C)(C)C(=O)N[C@@H](CCC(=O)O)C(=O)N[C@@H](Cc1ccccc1)C(=O)N[C@H](C(=O)N[C@@H](CCC(=O)O)C(=O)N[C@@H](Cc1ccc(O)cc1)C(=O)N[C@@H](CC(C)C)C(=O)N[C@@H](CC(C)C)C(=O)N[C@@H](CCC(=O)O)C(=O)NCC(=O)NCC(=O)N1CCC[C@H]1C(=O)N[C@@H](CO)C(=O)N[C@@H](CO)C(=O)NCC(=O)N[C@@H](C)C(=O)N1CCC[C@H]1C(=O)N1CCC[C@H]1C(=O)N1CCC[C@H]1C(=O)N[C@@H](CO)C(N)=O)C(C)C)[C@@H](C)CC) [Example 73]	292 nM	117 nM	0.036 nM
Y[Aib]EGTFISDYSI[αMeL]LDKK([AEEA-AEEA-γGlu-C20 diacid])HQ[Aib]DFVEWLLETGPSSGAPPPS-NH2 (N-terminus assumed; SMILES CC[C@H](C)[C@H](NC(=O)[C@H](Cc1ccccc1)NC(=O)[C@@H](NC(=O)CNC(=O)[C@H](CCC(=O)O)NC(=O)C(C)(C)NC(=O)[C@@H](N)Cc1ccc(O)cc1)[C@@H](C)O)C(=O)N[C@@H](CO)C(=O)N[C@@H](CC(=O)O)C(=O)N[C@@H](Cc1ccc(O)cc1)C(=O)N[C@@H](CO)C(=O)N[C@H](C(=O)N[C@@](C)(CC(C)C)C(=O)N[C@@H](CC(C)C)C(=O)N[C@@H](CC(=O)O)C(=O)N[C@@H](CCCCN)C(=O)N[C@@H](CCCCNC(=O)COCCOCCNC(=O)COCCOCCNC(=O)CC[C@H](NC(=O)CCCCCCCCCCCCCCCCCCC(=O)O)C(=O)O)C(=O)N[C@@H](Cc1c[nH]cn1)C(=O)N[C@@H](CCC(N)=O)C(=O)NC(C)(C)C(=O)N[C@@H](CC(=O)O)C(=O)N[C@@H](Cc1ccccc1)C(=O)N[C@H](C(=O)N[C@@H](CCC(=O)O)C(=O)N[C@@H](Cc1c[nH]c2ccccc12)C(=O)N[C@@H](CC(C)C)C(=O)N[C@@H](CC(C)C)C(=O)N[C@@H](CCC(=O)O)C(=O)N[C@H](C(=O)NCC(=O)N1CCC[C@H]1C(=O)N[C@@H](CO)C(=O)N[C@@H](CO)C(=O)NCC(=O)N[C@@H](C)C(=O)N1CCC[C@H]1C(=O)N1CCC[C@H]1C(=O)N1CCC[C@H]1C(=O)N[C@@H](CO)C(N)=O)[C@@H](C)O)C(C)C)[C@@H](C)CC) [Example 71]	102 nM	347 nM	0.0422 nM
Y[Aib]EGTLISDYSI[αMeL]LDKK([AEEA-AEEA-γGlu-C20 diacid])HQ[Aib]EFVEYLLETGPSSGAPPPS-NH2 (N-terminus assumed; SMILES CC[C@H](C)[C@H](NC(=O)[C@H](CC(C)C)NC(=O)[C@@H](NC(=O)CNC(=O)[C@H](CCC(=O)O)NC(=O)C(C)(C)NC(=O)[C@@H](N)Cc1ccc(O)cc1)[C@@H](C)O)C(=O)N[C@@H](CO)C(=O)N[C@@H](CC(=O)O)C(=O)N[C@@H](Cc1ccc(O)cc1)C(=O)N[C@@H](CO)C(=O)N[C@H](C(=O)N[C@@](C)(CC(C)C)C(=O)N[C@@H](CC(C)C)C(=O)N[C@@H](CC(=O)O)C(=O)N[C@@H](CCCCN)C(=O)N[C@@H](CCCCNC(=O)COCCOCCNC(=O)COCCOCCNC(=O)CC[C@H](NC(=O)CCCCCCCCCCCCCCCCCCC(=O)O)C(=O)O)C(=O)N[C@@H](Cc1c[nH]cn1)C(=O)N[C@@H](CCC(N)=O)C(=O)NC(C)(C)C(=O)N[C@@H](CCC(=O)O)C(=O)N[C@@H](Cc1ccccc1)C(=O)N[C@H](C(=O)N[C@@H](CCC(=O)O)C(=O)N[C@@H](Cc1ccc(O)cc1)C(=O)N[C@@H](CC(C)C)C(=O)N[C@@H](CC(C)C)C(=O)N[C@@H](CCC(=O)O)C(=O)N[C@H](C(=O)NCC(=O)N1CCC[C@H]1C(=O)N[C@@H](CO)C(=O)N[C@@H](CO)C(=O)NCC(=O)N[C@@H](C)C(=O)N1CCC[C@H]1C(=O)N1CCC[C@H]1C(=O)N1CCC[C@H]1C(=O)N[C@@H](CO)C(N)=O)[C@@H](C)O)C(C)C)[C@@H](C)CC) [Example 72]	837 nM	437 nM	0.0594 nM
YXEGTXISDYSIXLDXKHQXDFVEXLLEGGPSSGAPPPS (Aib2; Iva6; αMeL13; Orn16; K17((2-[2-(2-Amino-ethoxy)-ethoxy]-acetyl)2-(γ-Glu)-CO-(CH2)18-CO2H); Aib20; 4-Pal25; C-terminal amide) [Example 76]	358 nM	263 nM	0.0293 nM
Y[Aib]EGTFISDYSI[αMeL]LDKK([AEEA-AEEA-γGlu-C20 diacid])HQ[Aib]D[αMeF]VE[4Pal]LLAGGPSSGAPPPS-NH2 (N-terminus assumed; SMILES CC[C@H](C)[C@H](NC(=O)[C@H](Cc1ccccc1)NC(=O)[C@@H](NC(=O)CNC(=O)[C@H](CCC(=O)O)NC(=O)C(C)(C)NC(=O)[C@@H](N)Cc1ccc(O)cc1)[C@@H](C)O)C(=O)N[C@@H](CO)C(=O)N[C@@H](CC(=O)O)C(=O)N[C@@H](Cc1ccc(O)cc1)C(=O)N[C@@H](CO)C(=O)N[C@H](C(=O)N[C@@](C)(CC(C)C)C(=O)N[C@@H](CC(C)C)C(=O)N[C@@H](CC(=O)O)C(=O)N[C@@H](CCCCN)C(=O)N[C@@H](CCCCNC(=O)COCCOCCNC(=O)COCCOCCNC(=O)CC[C@H](NC(=O)CCCCCCCCCCCCCCCCCCC(=O)O)C(=O)O)C(=O)N[C@@H](Cc1c[nH]cn1)C(=O)N[C@@H](CCC(N)=O)C(=O)NC(C)(C)C(=O)N[C@@H](CC(=O)O)C(=O)N[C@@](C)(Cc1ccccc1)C(=O)N[C@H](C(=O)N[C@@H](CCC(=O)O)C(=O)N[C@@H](Cc1ccncc1)C(=O)N[C@@H](CC(C)C)C(=O)N[C@@H](CC(C)C)C(=O)N[C@@H](C)C(=O)NCC(=O)NCC(=O)N1CCC[C@H]1C(=O)N[C@@H](CO)C(=O)N[C@@H](CO)C(=O)NCC(=O)N[C@@H](C)C(=O)N1CCC[C@H]1C(=O)N1CCC[C@H]1C(=O)N1CCC[C@H]1C(=O)N[C@@H](CO)C(N)=O)C(C)C)[C@@H](C)CC) [Example 56]	193 nM	530 nM	0.0487 nM

Source: US20210032299A1 (Eli Lilly, published 2021)
